# B1: rPOXA 1B (Pleurotus ostreatus) (protein)
# chain: SIGPRGTLNIANKVIQPDGFYRSTVLAGGSYPGPLIKGKTGDRFQINVVNKLADTSMPVDTSIHWHGLFVKGHNWADGPAMVTQCPIVPGHSFLYDFEVPDQAGTFWYHSHLGTQYCDGLRGPLVVYSKNDPHKRLYDVDDESTVLTVGDWYHAPSLSLTGVPHPDSTLFNGLGRSLNGPASPLYVMNVVKGKRYRIRLINTSCDSNYQFSIDGHTFTVIEADGENTQPLQVDQVQIFAGQRYSLVLNANQAVGNYWIRANPNSGDPGFENQMNSAILRYKGARSIDPTTPEQNATNPLHEYNLRPLIKKPAPGKPFPGGADHNINLNFAFDPATALFTANNHTFVPPTVPVLLQILSGTRDAHDLAPAGSIYDIKLGDVVEITMPALVFAGPHPIHLHGHTFAVVRSAGSSTYNYENPVRRDVVSIGDDPTDNVTIRFVADNAGPWFLHCHIDWHLDLGFAVVFAEGVNQTAAANPVPEAWNNLCPIYNSSNPSKLLMGTNAIGRLPAPLKA
# notes: secreted from Pichia pastoris/pGAPZαA-LaccPost-Stop (Clone 1); recombinant culture concentrate, not purified
# Substrate: CCn1c(=NN=c2sc3cc(S(=O)(=O)O)ccc3n2CC)sc2cc(S(=O)(=O)O)ccc21
# Assay: spectrophotometric ABTS oxidation; Michaelis-Menten fit
# Assay type: biochemical, Pleurotus ostreatus
# Conditions: 100 mM sodium citrate buffer, pH 3.0 ± 0.2, 25 °C, apparent constant, enzyme concentrate
# Text: spectrophotometric ABTS oxidation; Michaelis-Menten fit on rPOXA 1B
protein,measurement,value
B1,Km,37.2 µM
same,Vmax,10.5 µM/min

# — publication PMC10648076, “Statistical Improvement of rGILCC 1 and rPOXA 1B Laccases Activity Assay Conditions Supported by Molecular Dynamics” (Molecules, 2023)
